From patent publication US20180057604A1 (Genentech, published 2018)
Where a chain is given by its changes, count along the chain named.

B1: 6266wt (Fab, V domains shown)
VH: QVQLVQSGAEVKKPGSSVKVSCKASGGTLSGYGVSWVRQAPGQGLEWMGNIIPGFGTANYAQKFQGRVTITADESTSTAYMELSSLRSEDTAVYYCARSGGTKYGMLDVWGQGTMVTVSS
VL: EIVMTQSPATLSVSPGERATLSCRASQSVSSNLAWYQQKPGQAPRLLIYGASTRATGIPARFSGSGSGTEFTLTISSLQSEDFAVYYCQQLILWPPRTFGGGTKVEIK
notes: also called ADI6266
B2: 6266.5 Fab (Fab, V domains shown)
VH: B1 VH with G31H, F55I, K103Q
VL: B1 VL with T53K, F83A
B3: 6266.1 Fab (Fab, V domains shown)
VH: B1 VH with G31H, F55I
VL: B1 VL
notes: not tied singly
B4: 6266.6 Fab (Fab, V domains shown)
VH: B1 VH with G31H, F55I, K103Q
VL: B1 VL with T56Y, F83A
B5: 6266.9 Fab (Fab, V domains shown)
VH: B1 VH with S30K, S99G
VL: B1 VL with T53K
B6: 6266.10 Fab (Fab, V domains shown)
VH: B1 VH
VL: B1 VL with T53K
B7: 6266.7 Fab (Fab, V domains shown)
VH: B1 VH with G31H, F55I, M106E
VL: B1 VL with T56Y, F83A
B8: 6266.12 Fab (Fab, V domains shown)
VH: B1 VH with S30N
VL: B1 VL
B9: 6266.4 Fab (Fab, V domains shown)
VH: B1 VH with G31H, F55I
VL: B1 VL with T53K
B10: 6266.11 Fab (Fab, V domains shown)
VH: B1 VH
VL: B1 VL with T56Y
B11: 6266.8 Fab (Fab, V domains shown)
VH: B1 VH with S30K, S99G
VL: B1 VL with T56Y
notes: not tied singly
B12: 6266.14 Fab (Fab, V domains shown)
VH: B1 VH with T57V, Y104W
VL: B1 VL
B13: 6266.13 Fab (Fab, V domains shown)
VH: B1 VH with V34M
VL: B1 VL
B14: 6266.3 Fab (Fab, V domains shown)
VH: B1 VH with G31H, F55I
VL: B1 VL with T56Y
B15: 6266.2 Fab (Fab, V domains shown)
VH: B1 VH with G31H, F55I
VL: B1 VL with T53K, F83A

Molecular target: His-tagged BACE1 protein (Example 15) (Homo sapiens (Human), UniProt P56817 22-457)
Sequence (P56817 22-457 limits assumed): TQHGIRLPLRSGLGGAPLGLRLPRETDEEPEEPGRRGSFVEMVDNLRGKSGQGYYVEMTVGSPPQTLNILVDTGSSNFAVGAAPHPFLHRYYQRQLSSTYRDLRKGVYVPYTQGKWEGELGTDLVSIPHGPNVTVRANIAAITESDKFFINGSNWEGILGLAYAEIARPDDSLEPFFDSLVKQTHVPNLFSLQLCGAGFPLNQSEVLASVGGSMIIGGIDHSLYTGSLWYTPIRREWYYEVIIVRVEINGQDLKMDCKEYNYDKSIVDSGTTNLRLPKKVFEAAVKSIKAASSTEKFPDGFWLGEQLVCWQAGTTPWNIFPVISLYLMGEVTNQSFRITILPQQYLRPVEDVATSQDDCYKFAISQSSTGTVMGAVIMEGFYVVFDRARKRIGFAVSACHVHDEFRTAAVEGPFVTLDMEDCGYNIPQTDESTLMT
Assay: SPR (Biacore T200), Fab on captured His-BACE1;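 also: Single-cycle kinetics with serially diluted Fab flowed over BACE1 captured by anti-His antibody on a CM5 chip, rates fitted to a one-to-one Langmuir model, Kd derived as koff over kon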
Procedure: The binding affinity of anti-BACE1 Fab antibodies by single-cycle kinetics was determined using surface plasmon resonance (SRP) measurement with a BIAcore™ T200 instrument. Briefly, series S sensor chip CM5 was activated with EDC and NHS reagents according to the supplier's instructions, and anti-His antibody was coupled to achieve approximately 1000 response units (RU), then following by blocking un-reacted groups with 1M ethanolamine. For kinetics measurements, His-tagged BACE1 protein was first injected at 10 μl/min flow rate to capture approximately 100 RU at 3 different flow cells (FC), except for FC1 (reference), and then 5-fold serial dilutions of Fab in HBS-P buffer (0.01M HEPES pH 7.4, 0.15M NaCl, 0.005% surfactant P20) from low (0.08 nM) to high (50 nM) were injected (flow rate: 30 μl/min) one after the other in the same cycle with no regeneration between injections. The sensorgram was recorded and subject to reference and buffer subtraction before evaluating by BIAcore™ T200 Evaluation Software (version 2.0). Association rates (kon) and dissociation rates (koff) were calculated using a simple one-to-one Langmuir binding model. The equilibrium dissociation constant (Kd) was calculated as the ratio koff/kon.

Kd [nM]	koff [s⁻¹]	kon [M⁻¹ s⁻¹]	Binder
1.09	0.000403	371000	B1
0.53	0.000228	428000	B2
0.24	0.000161	654000	B3
0.78	0.000278	356000	B4
0.68	0.000305	445000	B5
0.69	0.000506	756000	B6
0.62	0.000333	542000	B7
0.52	0.000447	854000	B8
0.26	0.00017	638000	B9
0.46	0.00041	891000	B10
0.56	0.000275	488000	B11
0.57	0.000474	839000	B12
0.56	0.000411	734000	B13
0.29	0.000142	480000	B14
0.58	0.000142	245000	B15
